Experimental data from US20030100489A1 (COLD SPRING HARBOR LABORATORY, published 2003).

What was measured:
GAL4db-CDK2 fusion = target: T1, GAL4db-CDK2 fusion (UniProt P04386 1-147; P24941 1-298, limits assumed); assay: yeast two-hybrid (HIS3 growth and beta-galactosidase) in YPB2
T1 construct: Two-hybrid construct; also called GALAdb fusion construct containing CDK2
Method: (§1) Transformed cells were plated with and without histidine.
(§2) After growing cells in medium selective for both plasmids (minus tryptophan and minus leucine), two colonies were picked randomly and were streaked in plates that either contained or lacked histidine.

GAL4db-PCNA fusion = target: T2, GAL4db-PCNA fusion (UniProt P04386 1-147; P12004 1-261, limits assumed); assay: as above
T2 construct: Two-hybrid construct; also called GALAdb fusion construct containing PCNA
Method: as §1, §2

GAL4db-cdc2 fusion = target: T3, GAL4db-cdc2 fusion (UniProt P04386 1-147; P06493 1-297, limits assumed); assay: as above
T3 construct: Two-hybrid construct; also called GALAdb fusion construct containing cdc2
Method: as §1, §2

GAL4db-CDK5 fusion = target: T4, GAL4db-CDK5 fusion (UniProt P04386 1-147; Q00535 1-292, limits assumed); assay: as above
T4 construct: Two-hybrid construct; also called GALAdb fusion construct containing CDK5
Method: as §1, §2

cdc2 = target: T5, cdc2 (human, UniProt P06493 1-297); assay: anti-CDC2 immunoprecipitation from TGF-β arrested human keratinocytes
T5 construct: Untagged: 35S-labelled in vitro translated, or endogenous in HaCaT human keratinocytes; also called CDK1

CDK4 Arg24-Cys mutant = target: T6, CDK4 Arg24-Cys mutant (Homo sapiens (Human), UniProt P11802 1-303); assay: immunoprecipitation from mixed Sf9 lysates
T6 construct: Found in cells from a melanoma patient; also called mutant CDK4; Arg→Cys mutant of CDK4

CDK2 = CDK2 (human, UniProt P24941 1-298); assay: anti-CDK2 immunoprecipitation from TGF-β arrested human keratinocytes

T6 sequence (P11802 whole entry R24C): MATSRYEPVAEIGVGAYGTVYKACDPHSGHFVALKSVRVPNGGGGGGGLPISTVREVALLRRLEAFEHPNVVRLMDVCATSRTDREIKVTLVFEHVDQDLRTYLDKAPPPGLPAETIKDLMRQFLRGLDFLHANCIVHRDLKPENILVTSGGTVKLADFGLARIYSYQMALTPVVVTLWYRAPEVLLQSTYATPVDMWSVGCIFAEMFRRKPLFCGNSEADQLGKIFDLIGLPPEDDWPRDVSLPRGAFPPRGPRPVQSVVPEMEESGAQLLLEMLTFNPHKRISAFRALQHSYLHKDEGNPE
T5 sequence (P06493 whole entry): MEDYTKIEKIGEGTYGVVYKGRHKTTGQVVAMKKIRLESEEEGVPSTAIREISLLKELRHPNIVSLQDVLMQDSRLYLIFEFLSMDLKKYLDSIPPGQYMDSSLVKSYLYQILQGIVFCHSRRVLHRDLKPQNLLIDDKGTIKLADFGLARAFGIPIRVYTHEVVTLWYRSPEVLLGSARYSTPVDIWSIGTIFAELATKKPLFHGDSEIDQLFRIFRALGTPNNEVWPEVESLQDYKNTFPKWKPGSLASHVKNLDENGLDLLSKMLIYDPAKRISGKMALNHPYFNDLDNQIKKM

Binder	binding result (GAL4db-CDK2 fusion)	binding result (GAL4db-PCNA fusion)	binding result (GAL4db-cdc2 fusion)	binding result (GAL4db-CDK5 fusion)	binding result (cdc2)	binding result (CDK4 Arg24-Cys mutant)	binding result (CDK2)
GAL4ad-p16 fusion (other, not shown: large carriers, Two-hybrid construct in yeast YPB2; also called GALAad-p16) MEPAAGSSMEPSADWLATAAARGRVEEVRALLEAGALPNAPNSYGRRPIQVMMMGSARVAELLLLHGAEPNCADPATLTRPVHDAAREGFLDTLVVLHRAGARLDVRDAWGRLPVDLAEELGHRDVARYLRAAAGGTRGSNHARIDAAEGPSDIPD	no binding	no binding	no binding	no binding			
p15 (other, Untagged p15: endogenous in HaCaT human keratinocytes or overexpressed in Sf9 cells (lysate); also called human p15; protein of approx. 15 kDa) MREENKGMPSGGGSDEGLATPARGLVEKVRHSWEAGADPNGVNRFGRRAIQVMMMGSARVAELLLLHGAEPNCADPATLTRPVHDAAREGFLDTLVVLHRAGARLDVRDAWGRLPVDLAEERGHRDVAGYLRTATGD					no binding	no binding	no binding
p16 (other, also called human p16) MEPAAGSSMEPSADWLATAAARGRVEEVRALLEAGALPNAPNSYGRRPIQVMMMGSARVAELLLLHGAEPNCADPATLTRPVHDAAREGFLDTLVVLHRAGARLDVRDAWGRLPVDLAEELGHRDVARYLRAAAGGTRGSNHARIDAAEGPSDIPD						no binding	
